From doi:10.1101/2024.10.31.621230 (bioRxiv, 2024)

B1: LamB (natural protein, UniProt P02943 1-446, looked up)
chain: MMITLRKLPLAVAVAAGVMSAQAMAVDFHGYARSGIGWTGSGGEQQCFQTTGAQSKYRLGNECETYAELKLGQEVWKEGDKSFYFDTNVAYSVAQQNDWEATDPAFREANVQGKNLIEWLPGSTIWAGKRFYQRHDVHMIDFYYWDISGPGAGLENIDVGFGKLSLAATRSSEAGGSSSFASNNIYDYTNETANDVFDVRLAQMEINPGGTLELGVDYGRANLRDNYRLVDGASKDGWLFTAEHTQSVLKGFNKFVVQYATDSMTSQGKGLSQGSGVAFDNEKFAYNINNNGHMLRILDHGAISMGDNWDMMYVGMYQDINWDNDNGTKWWTVGIRPMYKWTPIMSTVMEIGYDNVESQRTGDKNNQYKITLAQQWQAGDSIWSRPAIRVFATYAKWDEKWGYDYTGNADNNANFGKAVPADFNGGSFGRGDSDEWTFGAQMEIWW
modifications: 35S-methionine
notes: LamB, the 18-stranded outer membrane protein used as a model substrate; Gunasinghe et al., 2018; Thewasano et al., 2023) for the substrate constructs; also called trimeric-LamB; source: in vitro translated in rabbit reticulocyte lysate with 35S-methionine, assembled into EMM
B2: OmpF (natural protein, UniProt P02931 1-362, looked up)
chain: MMKRNILAVIVPALLVAGTANAAEIYNKDGNKVDLYGKAVGLHYFSKGNGENSYGGNGDMTYARLGFKGETQINSDLTGYGQWEYNFQGNNSEGADAQTGNKTRLAFAGLKYADVGSFDYGRNYGVVYDALGYTDMLPEFGGDTAYSDDFFVGRVGGVATYRNSNFFGLVDGLNFAVQYLGKNERDTARRSNGDGVGGSISYEYEGFGIVGAYGAADRTNLQEAQPLGNGKKAEQWATGLKYDANNIYLAANYGETRNATPITNKFTNTSGFANKTQDVLLVAQYQFDFGLRPSIAYTKSKAKDVEGIGDVDLVNYFEVGATYYFNKNMSTYVDYIINQIDSDNKLGVGSDDTVAVGIVYQF
modifications: 35S-methionine
notes: OmpF, the 16-stranded outer membrane protein used as a model substrate; Gunasinghe et al., 2018; Thewasano et al., 2023) for the substrate constructs; source: in vitro translated in rabbit reticulocyte lysate with 35S-methionine, assembled into EMM

Target: the molecule itself
Experiment: native gel or EMSA; EMM assembly assay: 35S-labelled in vitro translated substrate incubated with EMM at 30°C for 15, 45 or 90 min, EMM solubilised with 1.5% DDM, BN-PAGE, radio-imaging; homotrimer at approximately 160 kDa

Row | Protein | stoichiometry N
1 | B1 | 3
2 | B2 | 3
